We go through 1 molecule from patent US20220073631A1 (QYUNS THERAPEUTICS, published 2022).

As a reminder, the Kd is a measure of binding affinity in units of concentration. Higher therefore signals weaker binding. As usually defined, the koff is the first-order rate constant of dissociation. A high value points to a short-lived complex. For orientation: kon means the rate constant with which the complex forms. A high value points to fast association.

Positions count from the first letter of the chain named.

Assay [1] deals with T1, hIL-4Rα-ECD (wild-type hIL-4Rα extracellular domain with C-terminus his-tag) (human, UniProt P24394 26-232).
T1 construct: Made in HEK 293F cells and purified on nickel; not shown: C-terminal his-tag
Briefly: SPR, Biacore T200, by the methods of Example 2; mean of three experiments. The protocol: (§1) The protein A was chemically coupled to a CM5 chip, and an appropriate amount of the antibody was immobilized by a capture method such that the Rmax was less than 50 RU and the flow rate for the capture was 10 μl/min. The antigen was subject to gradient dilution, and the flow rate in the instrument was switched to 30 μl/min. The antigen was flowed through the reference channel and the channel with the immobilized antibody sequentially in an ascending order of concentration, and the running buffer was flowed through as a negative control. After each binding and dissociation was complete, the chip was regenerated with glycine, pH 1.5. Fitting was performed with the build-in software in the instrument according to a 1:1 binding model. The binding rate constant kₐ, the dissociation rate constant kd, and the equilibrium dissociation constant KD values of the antibody were calculated. Dupilumab was obtained by purchasing a commercially available medicine.
(§2) To further narrow down the key amino acids that PD2-31 binds to, multiple mutants of hIL-4Rα were designed in Loop 2 (V40FLLSEA46) and Loop 3 (M65[…]73) (Table 2). The wild-type hIL-4Rα (hIL-4Rα-ECD) and hIL-4Rα mutants were prepared using standard techniques. Briefly, the expression plasmids containing the extracellular domain of wild-type hIL-4Rα and different mutated hIL-4Rα were constructed and transfected into HEK 293F cells. After expression, the extracellular domain of wild-type hIL-4Rα and hIL-4Rα mutants with C-terminus his-tag were purified by Nickel chromatography. Purified proteins of wild-type hIL-4Rα and hIL-4Rα mutants were analyzed for interaction with PD2-31 and Dupilumab. The interaction was studied by Biacore T200, according to the methods in Example 2.
Background: In SPR one partner is held on a chip, and binding of the other changes the refractive index at the surface.

The next assay deals with T2, hIL-4Rα-Mu241 (human, UniProt P24394 26-232).
T2 construct: Printed positions fit the mature protein; also called D67A/V68R/V69F; not shown: C-terminal his-tag
T2 chain: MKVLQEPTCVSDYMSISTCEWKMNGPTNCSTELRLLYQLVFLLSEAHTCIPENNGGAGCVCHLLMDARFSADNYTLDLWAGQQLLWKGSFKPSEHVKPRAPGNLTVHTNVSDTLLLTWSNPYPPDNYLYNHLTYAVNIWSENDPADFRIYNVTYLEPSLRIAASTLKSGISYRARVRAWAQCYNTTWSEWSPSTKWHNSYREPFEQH
Briefly: SPR, Biacore T200, by the methods of Example 2. How it is done: as §1, §2

Another assay deals with T3, hIL-4Rα-Mu245 (human, UniProt P24394 26-232).
T3 construct: Printed positions fit the mature protein; also called A71L/D72R/N73A; not shown: C-terminal his-tag
T3 chain: T2 chain with A67D, R68V, F69V, A71L, D72R, N73A
Briefly: SPR, Biacore T200, by the methods of Example 2. The protocol: as §1, §2

In a further assay the target is T4, hIL-4Rα-Mu240 (human, UniProt P24394 26-232).
T4 construct: Printed positions fit the mature protein; also called D66A/D67A/V68R; not shown: C-terminal his-tag
T4 chain: T2 chain with D66A, F69V
Kind of assay: SPR, Biacore T200, by the methods of Example 2. How it is done:
as §1, §2

B1: QX005N (PD2-31) (antibody, V domains shown)
VH: EVQLVESGGGLVQPGGSLRLSCAASGIDLRTNSMSWVRQAPGKGLEWVGIIGSSGYMDYASWAKGRFTISRDNSKNTLYLQMNSLRAEDTAVYYCARHGDSSSFALWGQGTLVTVSS
VL: DIQMTQSPSSLSASVGDRVTITCRASESVYKNNRLSWYQQKPGKAPKLLIYEASKVASGVPSRFSGSGSGTDFTLTISSLQPEDFATYYCAGAYRGNIYPFGQGTKVEIK
notes: Humanized from rabbit clone #2, expressed as a full antibody in ExpiCHO-S cells (heavy chain 48.5 kDa, light chain 23.7 kDa)
Take B1: the Kd came out at 0.169 nM in assay [1], 0.474 nM with hIL-4Rα-Mu241, 1.45 nM with hIL-4Rα-Mu245 and 0.75 nM with hIL-4Rα-Mu240. The dissociation rate constant (koff) in assay [1] is 0.000134 s⁻¹; in the assay with hIL-4Rα-Mu241 it was 6.59e-05 s⁻¹; with hIL-4Rα-Mu245, 0.00029 s⁻¹; in the assay with hIL-4Rα-Mu240 it was 5.23e-05 s⁻¹. Besides, the kon in assay [1] is 779000 M⁻¹ s⁻¹; with hIL-4Rα-Mu241, 139000 M⁻¹ s⁻¹; with hIL-4Rα-Mu245 it was 201000 M⁻¹ s⁻¹; with hIL-4Rα-Mu240, 69800 M⁻¹ s⁻¹.
